Measured values published in patent US20230235073A1.

Experiments:
[1] = target: human CD36 recombinant protein (Sino Biological, reference 10752-H08H) (human) (UniProt P16671); assay: SPR Biacore T200, antibody captured on anti-mouse IgA, CD36 analyte, 2-state model
[2] = target: human CD36 on cells overexpressing human CD36 (human) (UniProt P16671); assay: FACS on cells overexpressing human CD36, % of Binding
[3] = target: human CD36 recombinant protein (Sino Biological, reference 10752-H08H) (human) (UniProt P16671); assay: SPR Biacore T200, antibody captured on anti-mouse IgA, CD36 analyte, bivalent model
[4] = target: human CD36 recombinant protein (Sino Biological, reference 10752-H08H) (human) (UniProt P16671); assay: ELISA, plate coated with human CD36, OD630, panel 'Coating: human CD36'
[5] = target: human CD36 recombinant protein (Sino Biological, reference 10752-H08H) (human) (UniProt P16671); assay: SPR Biacore T200, antibody captured on anti-mouse IgA, CD36 analyte 3.3-333 nM, 1-to-1 model
[6] = target: mouse CD36 recombinant protein (Sino Biological, reference 50422-M08H) (mouse) (UniProt Q08857); assay: ELISA, plate coated with mouse CD36, OD630, panel 'Coating: mouse CD36'
Sequence of mouse CD36 recombinant protein (Sino Biological, reference 50422-M08H) (mouse) (Q08857 30-439 limits assumed, stated change not applied): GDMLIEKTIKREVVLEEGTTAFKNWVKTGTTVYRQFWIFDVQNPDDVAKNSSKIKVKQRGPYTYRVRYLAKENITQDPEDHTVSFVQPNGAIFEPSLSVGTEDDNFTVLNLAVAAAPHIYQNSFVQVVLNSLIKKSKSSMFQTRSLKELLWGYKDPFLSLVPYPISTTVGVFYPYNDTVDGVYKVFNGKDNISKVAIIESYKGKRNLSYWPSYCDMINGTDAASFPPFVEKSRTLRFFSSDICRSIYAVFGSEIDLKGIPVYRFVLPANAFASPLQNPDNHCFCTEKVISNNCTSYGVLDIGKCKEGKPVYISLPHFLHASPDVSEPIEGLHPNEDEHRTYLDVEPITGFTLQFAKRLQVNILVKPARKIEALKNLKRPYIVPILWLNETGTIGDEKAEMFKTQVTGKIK

Sequence of human CD36 recombinant protein (Sino Biological, reference 10752-H08H) (human) (P16671 30-439 limits assumed): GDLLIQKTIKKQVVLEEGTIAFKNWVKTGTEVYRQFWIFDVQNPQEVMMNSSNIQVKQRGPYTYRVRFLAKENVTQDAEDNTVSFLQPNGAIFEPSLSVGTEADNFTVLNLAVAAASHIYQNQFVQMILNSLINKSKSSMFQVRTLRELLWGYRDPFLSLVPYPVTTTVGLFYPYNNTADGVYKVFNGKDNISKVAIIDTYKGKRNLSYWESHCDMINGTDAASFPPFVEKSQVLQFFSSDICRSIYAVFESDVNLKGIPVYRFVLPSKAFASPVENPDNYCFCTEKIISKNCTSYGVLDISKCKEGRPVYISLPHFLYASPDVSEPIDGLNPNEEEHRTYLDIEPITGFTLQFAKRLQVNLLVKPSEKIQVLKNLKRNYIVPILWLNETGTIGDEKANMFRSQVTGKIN
Sequence of human CD36 on cells overexpressing human CD36 (human) (P16671 2-472 limits assumed): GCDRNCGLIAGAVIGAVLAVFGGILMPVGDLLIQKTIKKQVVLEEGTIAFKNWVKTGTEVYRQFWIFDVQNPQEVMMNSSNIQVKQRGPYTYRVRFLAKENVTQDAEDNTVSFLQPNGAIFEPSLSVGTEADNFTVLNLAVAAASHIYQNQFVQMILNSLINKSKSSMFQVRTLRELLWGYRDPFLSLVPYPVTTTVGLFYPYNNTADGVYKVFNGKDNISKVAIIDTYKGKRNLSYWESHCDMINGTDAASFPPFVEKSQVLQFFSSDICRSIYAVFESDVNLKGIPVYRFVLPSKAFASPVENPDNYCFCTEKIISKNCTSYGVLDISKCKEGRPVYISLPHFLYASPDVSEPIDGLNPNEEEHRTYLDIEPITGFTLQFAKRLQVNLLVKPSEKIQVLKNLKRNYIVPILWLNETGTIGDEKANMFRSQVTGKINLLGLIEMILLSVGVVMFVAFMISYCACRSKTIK

A Kd [1] of 7.61 nM, a ka1 [1] of 86900 M⁻¹ s⁻¹ and a ka2 [1] of 0.000572 s⁻¹ were found for “commercial neutralizing monoclonal anti-CD36 antibody JC63.1 (CAYMAN, CAY-10009893-500)” in this work. The kd1 [1] was 0.0018 s⁻¹, the kd2 [1] was 0.000332 s⁻¹ and the EC50 (read off the curve) [2] was 0.03 nM. For the same substance, the KD1 [3] was 76.5 nM, the KD2 [3] was 956 nM and the ka1 [3] was 27200 M⁻¹ s⁻¹. The ka1 (second column so headed) [3] was 413 M⁻¹ s⁻¹, the ka2 [3] was 5.5e-05 1/RUs and the kd1 [3] was 0.00206 s⁻¹. The kd2 [3] was 0.000399 s⁻¹, the EC50 (read off the curve) [4] was 1 to 2 nM and the Kd [5] was 4.71 nM. For the same substance, the koff [5] was 0.00196 s⁻¹, the kon [5] was 418000 M⁻¹ s⁻¹ and the EC50 (read off the curve) [6] was 1 nM.
